Reference: publication PMC8476798, “SLURP-1 Controls Growth and Migration of Lung Adenocarcinoma Cells, Forming a Complex With α7-nAChR and PDGFR/EGFR Heterodimer” (Frontiers in Cell and Developmental Biology, 2021)

Columns and labels:
[1] = target: nicotinic acetylcholine receptor of α7 type (α7-nAChR) (human (endogenous in A549)) (UniProt P36544); conditions: scale: % of viable cells relative to the control
[2] = target: nicotinic acetylcholine receptor of α7 type (α7-nAChR) (human (endogenous in A549)) (UniProt P36544)
[3] = target: nicotinic acetylcholine receptor of α7 type (α7-nAChR) (human (endogenous in A549)) (UniProt P36544); remark: listed apart in the source
[4] = target: nicotinic acetylcholine receptor of α7 type (α7-nAChR) (human (endogenous in A549)) (UniProt P36544); remark: listed apart in the source
[5] = target: nicotinic acetylcholine receptor of α7 type (α7-nAChR) (human (endogenous in A549), UniProt P36544 23-502); test: cell-based or functional assay
Sequence of nicotinic acetylcholine receptor of α7 type (α7-nAChR) (P36544 23-502): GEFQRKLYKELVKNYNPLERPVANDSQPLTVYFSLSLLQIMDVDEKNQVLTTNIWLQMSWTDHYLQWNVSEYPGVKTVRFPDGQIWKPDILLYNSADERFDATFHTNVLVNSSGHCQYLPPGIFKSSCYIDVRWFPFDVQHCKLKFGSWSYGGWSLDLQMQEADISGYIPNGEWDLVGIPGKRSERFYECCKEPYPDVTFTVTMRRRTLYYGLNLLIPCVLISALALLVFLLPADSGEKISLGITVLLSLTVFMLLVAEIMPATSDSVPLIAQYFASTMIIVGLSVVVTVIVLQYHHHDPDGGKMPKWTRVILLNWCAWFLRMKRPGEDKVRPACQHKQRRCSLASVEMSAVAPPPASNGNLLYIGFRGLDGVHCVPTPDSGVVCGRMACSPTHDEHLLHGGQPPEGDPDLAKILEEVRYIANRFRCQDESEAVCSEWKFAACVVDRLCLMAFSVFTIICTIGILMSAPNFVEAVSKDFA

Sequence of nicotinic acetylcholine receptor of α7 type (α7-nAChR) (human (endogenous in A549)) (P36544 23-502): as above

chimeric protein NTII/SL-1(I)
antiproliferative activity in A549 cells, WST-1 test, 48 h with 1 μM protein, % of viable cells relative to the control [1]: 70

synthetic peptide “loop III” with the sequence of loop III of SLURP-1
IC50 of inhibition of ACh-evoked currents at human α7-nAChRs expressed in X. laevis oocytes (two-electrode voltage clamp, 100 μM ACh) [2]: > 250000 nM

synthetic peptide “loop I” mimicking loop I of SLURP-1
EC50 of the decrease of A549 cell viability, WST-1 test, 48 h [3]: 1800 nM | IC50 of inhibition of ACh-evoked currents at human α7-nAChRs expressed in X. laevis oocytes (two-electrode voltage clamp, 100 μM ACh) [2]: 74000 nM | EC50 of the inhibition of A549 cell migration, scratch assay (control cells without knock-down) [4]: 226 nM

B1: recombinant analogue of human SLURP-1 (rSLURP-1) (natural protein, UniProt P55000 23-103, looked up)
chain: LKCYTCKEPMTSASCRTITRCKPEDTACMTTLVTVEAEYPFNQSPVVTRSCSSSCVATDPDSIGAAHLIFCCFRDLCNSEL
EC50 of the decrease of A549 cell viability, WST-1 test, 48 h [5]: 10.1 nM | IC50 of inhibition of ACh-evoked currents at human α7-nAChRs expressed in X. laevis oocytes (two-electrode voltage clamp, 100 μM ACh) [5]: 12000 nM
